This is an account of results in patent US20200347143A1 (GLENMARK PHARMACEUTICALS S A, published 2020).

For this assay, the target named is T1, chiOX40R HHRH-Fc (human/rat chimera; human).
T1 construct: also called chiOX40R-Fc HHRH; chiOX40R OX40 HHRH-Fc
Description: SPR, chimera immobilised (3000 RU), fragment injected at 200 nM. As for the experimental part:
A second injection was then performed using HBS-EP buffer for 3 min followed by 5 min of dissociation. Regeneration between the injections was done using glycine pH1.5 buffer for 1 min (FIG. 21 and table 23).

T1 sequence (chain, as listed by the source): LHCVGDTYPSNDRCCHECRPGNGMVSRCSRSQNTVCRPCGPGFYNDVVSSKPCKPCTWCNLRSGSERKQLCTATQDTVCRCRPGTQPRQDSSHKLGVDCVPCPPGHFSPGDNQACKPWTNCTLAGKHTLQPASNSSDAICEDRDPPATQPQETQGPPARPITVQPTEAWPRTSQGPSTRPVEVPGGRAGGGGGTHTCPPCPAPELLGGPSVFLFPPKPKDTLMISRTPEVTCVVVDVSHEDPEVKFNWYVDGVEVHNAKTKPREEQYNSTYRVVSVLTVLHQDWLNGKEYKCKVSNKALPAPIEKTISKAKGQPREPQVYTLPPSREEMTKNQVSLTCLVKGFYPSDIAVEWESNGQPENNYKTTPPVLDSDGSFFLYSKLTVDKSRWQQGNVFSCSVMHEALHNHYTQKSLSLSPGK

B1: Fc-7H11 scFv/2H6 Fab (other)
heavy 1: HTCPPCPAPEAAGGPSVFLFPPKPKDTLMISRTPEVTCVVVDVSHEDPEVQFKWYVDGVEVHNAKTKPREEQYNSTFRVVSVLTVLHQDWLNGKEYKCKVSNKALPAPIEKTISKTKGQPREPAVYTLPPSREEMTKNQVKLVCLVTGFYPSDIAVEWESSGQPENNYYTTPPMLDSDGSFSLVSWLNVDKSRWQQGNIFSCSVMHEALHNRFTQKSLSLSPGGGGGTQVQLVQSGAEVKKPGASVKVSCKASGYTFTRYYMHWVRQAPGQCLEWMGWIYPGEGSTKYAQKFQGRVTMTRDTSISTAYMELSRLRSDDTAVYYCAREYGNYDYWGQGTLVTVSSGGGGSGGGGSGGGGSDIVMTQSPDSLAVSLGERATINCKSSQSLLNSGNQKNYLAWYQQKPGQPPKLLIYGASTRESGVPDRFSGSGSGTDFTLTISSLQAEDVAVYYCQNDHSYPYTFGCGTKLEIL
heavy 2: HTCPPCPAPEAAGGPSVFLFPPKPKDTLMISRTPEVTCVVVDVSHEDPEVKFNWYVDGVEVHNAKTKPREEQYNSTYRVVSVLTVLHQDWLNGKEYKCKVSNKALPAPIEKTISKAKGQPREPEVATFPPSRDELTKNQVTLVCLVTGFYPSDIAVEWESNGQPENNYKTDPPLLESDGSFALSSRLRVDKSRWQQGNVFSCSVMHEALHNHYTQKSLSLSPGGGGGTEVQLVESGGGLVQPGGSLRLSCAVSGYSITSDYAWNWIRQAPGKGLEWMGYISYSGSTAYNPSLKSRITISRDTSKNTFYLQMNSLRAEDTAVYYCARGPYNYLAYWGQGTLVTVSSASTKGPSVFPLAPSSKSTSGGTAALGCLVKDYFPEPVTVSWNSGALTSGVHTFPAVLQSSGLYSLSSVVTVPSSSLGTQTYICNVNHKPSNTKVDKKVEPKSC
light: DIQLTQSPSSLSASVGDRVTITCRASESVDNYGISFMNWFQQKPGKAPKLLIYAASNQKSGVPSRFSGSGSGTDFTLTISSLQPEDFATYFCQQSKEVPLTFGQGTKVEIKRTVAAPSVFIFPPSDEQLKSGTASVVCLLNNFYPREAKVQWKVDNALQSGNSQESVTEQDSKDSTYSLSSTLTLSKADYEKHKVYACEVTHQGLSSPVTKSFNRGEC
notes: N-terminal Fabs removed by digestion; also called Fc-2H6 Fab/7H11 scFv; purified digestion product of Tetra-20
As to B1, the response units was 100 RU.
